Measured values as given in EP4806514A2 (Lepu Biopharma Co., Ltd., dated 2025).
Substitutions are numbered along the chain they refer to.

T1: hCDH17-his (full length extracellular domain of human CDH17, Q23-M787, his tag at the C-terminal) (human, UniProt Q12864 23-787)
T1 construct: Limits of the construct (UniProt Q12864, Q23-M787, C-terminal his tag); also called human CDH17-his protein; human CDH17 protein
T1 sequence: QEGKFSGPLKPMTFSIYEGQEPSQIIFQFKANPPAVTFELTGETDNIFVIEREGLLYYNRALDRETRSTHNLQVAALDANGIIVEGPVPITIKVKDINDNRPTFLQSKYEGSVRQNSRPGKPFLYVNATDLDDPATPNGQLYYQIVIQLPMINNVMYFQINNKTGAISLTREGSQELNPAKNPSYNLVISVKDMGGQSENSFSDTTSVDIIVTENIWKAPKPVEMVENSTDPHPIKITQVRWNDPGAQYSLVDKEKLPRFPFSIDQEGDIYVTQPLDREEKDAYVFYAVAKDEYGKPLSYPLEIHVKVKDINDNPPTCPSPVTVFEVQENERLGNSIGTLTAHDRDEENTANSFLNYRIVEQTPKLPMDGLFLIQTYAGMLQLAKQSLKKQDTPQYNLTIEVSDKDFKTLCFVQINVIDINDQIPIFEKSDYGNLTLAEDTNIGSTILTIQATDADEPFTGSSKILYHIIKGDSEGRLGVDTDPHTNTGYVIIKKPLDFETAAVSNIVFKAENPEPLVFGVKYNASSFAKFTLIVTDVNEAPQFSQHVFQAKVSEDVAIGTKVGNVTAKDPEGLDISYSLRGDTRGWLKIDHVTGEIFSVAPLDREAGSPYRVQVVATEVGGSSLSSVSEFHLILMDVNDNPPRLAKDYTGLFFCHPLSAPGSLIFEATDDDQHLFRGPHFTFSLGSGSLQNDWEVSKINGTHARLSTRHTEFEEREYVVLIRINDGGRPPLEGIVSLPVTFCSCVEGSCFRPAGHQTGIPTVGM

T2: human CDH16 protein (hCDH16-his, Novoprotein, Cat. No. CJ16) (human, UniProt O75309 19-786)
T2 construct: Bought; also called human CDH16-his
T2 sequence (looked up): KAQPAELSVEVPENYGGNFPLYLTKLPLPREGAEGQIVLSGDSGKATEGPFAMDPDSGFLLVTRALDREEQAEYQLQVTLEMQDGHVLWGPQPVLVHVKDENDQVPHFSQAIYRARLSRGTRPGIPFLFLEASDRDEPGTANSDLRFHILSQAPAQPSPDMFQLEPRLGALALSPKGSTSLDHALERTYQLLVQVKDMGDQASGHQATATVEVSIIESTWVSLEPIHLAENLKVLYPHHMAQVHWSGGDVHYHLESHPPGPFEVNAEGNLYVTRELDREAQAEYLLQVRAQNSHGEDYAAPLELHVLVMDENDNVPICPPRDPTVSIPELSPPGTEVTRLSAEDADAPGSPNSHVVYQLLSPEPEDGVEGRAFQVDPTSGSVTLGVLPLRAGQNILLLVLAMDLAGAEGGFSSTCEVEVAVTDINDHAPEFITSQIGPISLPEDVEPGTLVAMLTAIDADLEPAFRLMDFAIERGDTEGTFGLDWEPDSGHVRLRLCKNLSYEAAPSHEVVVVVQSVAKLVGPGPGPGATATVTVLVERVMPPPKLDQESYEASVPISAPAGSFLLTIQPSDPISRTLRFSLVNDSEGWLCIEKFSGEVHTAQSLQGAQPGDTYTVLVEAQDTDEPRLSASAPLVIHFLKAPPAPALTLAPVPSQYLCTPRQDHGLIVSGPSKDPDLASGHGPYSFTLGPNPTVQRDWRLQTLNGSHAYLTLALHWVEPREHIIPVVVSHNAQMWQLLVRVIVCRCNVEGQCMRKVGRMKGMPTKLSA

T3: human CDH17, full length, expressed on cells (HEK293-hCDH17); AsPC-1, HCT-8, AGS, LoVo, KATO III, HT-29 tumor … (human, UniProt Q12864 23-832)
T3 construct: also called human CDH17 expressed on tumor cells
T3 sequence: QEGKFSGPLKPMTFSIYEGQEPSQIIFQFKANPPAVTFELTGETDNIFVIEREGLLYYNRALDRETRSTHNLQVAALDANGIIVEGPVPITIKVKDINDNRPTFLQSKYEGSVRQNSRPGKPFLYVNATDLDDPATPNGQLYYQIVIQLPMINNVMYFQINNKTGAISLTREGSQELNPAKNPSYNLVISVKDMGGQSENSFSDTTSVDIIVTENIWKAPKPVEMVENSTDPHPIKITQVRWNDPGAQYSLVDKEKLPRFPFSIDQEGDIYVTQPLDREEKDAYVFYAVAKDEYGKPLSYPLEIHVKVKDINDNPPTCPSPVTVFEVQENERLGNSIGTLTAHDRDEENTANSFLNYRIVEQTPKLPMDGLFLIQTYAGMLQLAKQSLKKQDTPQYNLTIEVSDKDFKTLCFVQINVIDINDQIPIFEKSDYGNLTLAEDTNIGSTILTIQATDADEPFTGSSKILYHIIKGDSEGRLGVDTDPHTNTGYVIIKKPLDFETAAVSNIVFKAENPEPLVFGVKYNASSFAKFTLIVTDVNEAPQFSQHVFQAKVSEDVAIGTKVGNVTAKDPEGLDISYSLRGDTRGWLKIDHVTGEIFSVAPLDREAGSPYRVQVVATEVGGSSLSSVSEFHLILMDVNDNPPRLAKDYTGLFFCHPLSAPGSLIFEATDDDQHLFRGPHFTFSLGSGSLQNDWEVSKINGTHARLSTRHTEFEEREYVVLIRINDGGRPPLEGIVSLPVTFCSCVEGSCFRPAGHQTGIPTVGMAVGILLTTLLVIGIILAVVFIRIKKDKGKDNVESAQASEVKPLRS

B1: 120B10C5 chimeric mAb (antibody, V domains shown)
VH: QVQLQQSGAELAKPGASVKLSCRTSGYTFTNYWMHWVKQRPGQGLEWIGYINPSSGYTKYNQKFKDKATLTADKSSSTAYMQLSSLTYEDSAVHYCARSLNYYDSGYWYFDVWGTGTAVTVSS
VL: DIVLTQSPASLAVSLGQRATISCRASQSVSTSSYSYMHWYQQKPGQPPKLLIKYASNLESRVPARFSGSGSGTDFTLNIHPVEEEDSATYYCQHSWEIPWTFGGGTKLEIK
notes: Mouse variable regions fused to human IgG1 constant region
B2: 29H8D3-z3 (antibody, V domains shown)
VH: QVQLVQSGAEVKKPGASVKVSCKASGYTFTDHTIHWVRQAPGQGLEWMGYIYPRDGYTKYNEKFKDRVTMTTDTSTSTAYMELRSLRSDDTAVYYCARFYYGYWYFDVWGQGTTVTVSS
VL: DIVMTQSPLSLPVTPGEPASISCRSSKSLLRSNGNTYLYWFLQKPGQSPQVLIYRMSNLASGVPDRFSGSGSGTDFTLKISRVEAEDVGVYYCMQHLEYPFTFGQGTKLEIK
notes: Humanized variable regions fused to human IgG1 constant region
B3: 29H8D3-z6 (antibody, V domains shown)
VH: B2 VH with M48I, V68A
VL: B2 VL
notes: Humanized, human IgG1 constant region
B4: 134C7B1 chimeric mAb (antibody, V domains shown)
VH: AVQLQQSGPELLKPGASVKISCKASGYTFTDYTMHWVKQSHGKSLEWIGGINPNYGGTSYNETFKDKATLTVDKSSNTAYMELRSLTSEDSAVYYCARIPYGSYPMDYWGQGTSVTVSS
VL: DIVMSQSPSSLTVSVGEKVTMSCKSSQSLLYSSNQKIYLAWYQQKPGQSPKLLISWASTRESGVPDRFTGSGSGTDFTLTISSVKAEDLADYYCQQYYRYRTFGGGTKLEIK
notes: as for B1
B5: 143H10E4 chimeric mAb (antibody, V domains shown)
VH: QVQLQQSDAELVKPGASVKISCKASGSTFTDHTIHWVKQRPEQGLEWIGYIYPVYGYTQNNEKFKGKATLTADKSSSTAYMQLNSLTSEDSAVYFCARSRDSNPYYFDYWGQGTTLTVSS
VL: EIVLTQSPALMAASPGEKVTITCTVSSSISSSNLHWYQQKSGTSPKPWIYGTSNLASGVPVRFSGSGSGTSYSLTISSMEAEDAATYYCQQWSSYPFTFGSGTKLKMK
notes: as for B1
B6: 152A1D12-z17 (antibody, V domains shown)
VH: QVQLVQSGAEVKKPGASVKVSCKASGYTFTDYNMHWVKQAPGQRLEWIGYIYRNNGYNGYNQKFKNKATLTVDTSASTAYMELSSLRSEDTAVYYCARNYWRGAMDYWGQGTTVTVSS
VL: EIVLTQSPATLSLSPGERATLSCSASSSISYMHWYQQKPGQAPRLLIYDTSKLASGIPARFSGSGSGTDFTLTISSLEPEDFAVYYCHQRSSYPWTFGGGTKVEIK
notes: Humanized, human IgG1 constant region; also called 152A1D12 HU-VH1-3 / HU-VL2-0
B7: 152A1D12-z13 (antibody, V domains shown)
VH: B6 VH
VL: B6 VL with Q41K, R44K, I57V, A59S, E78Q, V84T
notes: Humanized, human IgG1 constant region; also called 152A1D12 HU-VH1-3 / HU-VL1-0
B8: 152A1D12-z18 (antibody, V domains shown)
VH: B6 VH
VL: B6 VL with L46W, I57V
notes: Humanized, human IgG1 constant region; also called 152A1D12 HU-VH1-3 / HU-VL2-1
B9: 155B11C6-z3 (antibody, V domains shown)
VH: QVQLVQSGAEVKKPGASVKVSCKASGYTFTSYTMHWVRQAPGQGLEWMGYIDPKSDYNYYNQKFKDRVTMTRDTSISTAYMELSRLRSDDTAVYYCARGFFKGYFDVWGQGTTVTVSS
VL: EIVLTQSPGTLSLSPGERATLSCSVSSSISSSNLHWYQQKPGQAPRPWIYGTSNLASGVPDRFSGSGSGTDYTLTISRLEPEDFAVYYCQQWTSYPFTFGQGTKLEIK
notes: Humanized, human IgG1 constant region; also called 155B11C6 HU-VH1-0 / HU-VL1-2
B10: 155B11C6-z4 (antibody, V domains shown)
VH: B9 VH
VL: B9 VL with A44S, D71S
notes: Humanized, human IgG1 constant region; also called 155B11C6 HU-VH1-0 / HU-VL1-3
B11: 155B11C6-z7 (antibody, V domains shown)
VH: B9 VH with M48I, V68A, M70L
VL: B9 VL
notes: Humanized, human IgG1 constant region; also called 155B11C6 HU-VH1-2 / HU-VL1-2
B12: 152A1D12 chimeric mAb (antibody, V domains shown)
VH: EVQLQQSGPELVKPGASVKISCKASGYTFTDYNMHWVKQSHGKSLEWIGYIYRNNGYNGYNQKFKNKATLTVDSSSSTAYMELRSLTSEDSAVYYCARNYWRGAMDYWGQGTSVTVSS
VL: QIVLTQSPAIMSASPGEKVTMTCSASSSISYMHWYQQKPGTSPKRWIYDTSKLASGVPARFSGSGSGTSYSLTISSMEAEDAGTYYCHQRSSYPWTFGGGTKLEIK
notes: as for B1
B13: 155B11C6 chimeric mAb (antibody, V domains shown)
VH: QVQLQQSGAELARPGASVKMSCKASGYTFTSYTMHWVKQRPGQGLEWIGYIDPKSDYNYYNQKFKDKATLTADKSSSTAYMQLSGLTSEDSTVYYCARGFFKGYFDVWGAGTTVTVSS
VL: B5 VL with A9P, T24S, G42E, V61I, S93T, S101A, K106E, M107L
notes: as for B1

Legend:
[1] = biological target: T1, hCDH17-his (full length extracellular …); assay: ELISA, hCDH17-his coated at 2 ug/mL
[2] = biological target: T2, human CDH16 protein (hCDH16-his, …); assay: ELISA, hCDH16-his coated at 1 ug/mL
[3] = biological target: T3, human CDH17, full length, expressed on …; assay: flow cytometry, HEK293-hCDH17 cells
[4] = biological target: T1, hCDH17-his (full length extracellular …); assay: SPR (Biacore 8K), antibody captured on Protein A chip, hCDH17-his injected
[5] = biological target: T3, human CDH17, full length, expressed on …; assay: flow cytometry, AsPC-1 cells
[6] = biological target: T3, human CDH17, full length, expressed on …; assay: flow cytometry, AGS cells

Binder | binding result [1] | binding result [2] | binding result [3] | binding result [4] | binding result [5] | binding result [6]
B1 | binds | no binding (tested: titrated from 100 nM) | binds | – | – | –
B2 | – | – | – | binds | binds | –
B3 | – | – | – | binds | binds | –
B4 | binds | no binding (tested: titrated from 100 nM) | binds | – | – | –
B5 | binds | no binding (tested: titrated from 100 nM) | binds | – | – | –
B6 | – | – | – | binds | – | binds
B7 | – | – | – | binds | – | binds
B8 | – | – | – | binds | – | binds
B9 | – | – | – | binds | – | binds
B10 | – | – | – | binds | – | binds
B11 | – | – | – | binds | – | binds
B12 | binds | no binding (tested: titrated from 100 nM) | binds | – | – | –
B13 | binds | no binding (tested: titrated from 100 nM) | binds | – | – | –
